Measurements: US20070020327A1

What was measured:
HLA-A*1101 (human) [1] = assay: competition with 125I-labelled standard peptide for purified HLA-A*1101, gel filtration; standard 940.06 [..] (6.0 nM)
HLA-A*0301 (human) [2] = assay: competition with 125I-labelled standard peptide for purified HLA, gel filtration; details: scale: ratio
HLA-A*1101 (human) [3] = assay: as above; details: scale: ratio
HLA-A*0301 (human) [4] = assay: competition with 125I-labelled standard peptide for purified HLA-A*0301, gel filtration
HLA-A*1101 (human) [5] = assay: competition with 125I-labelled standard peptide for purified HLA-A*1101, gel filtration; ratio to the A*1101 standard peptide 940.06 [..] (6.0 nM)
HLA-A*0202 (human) [6] = assay: competition for purified HLA with 125I-labelled standard peptide 941.01 [..] as competitor, gel filtration; details: remark: other sources report otherwise; scale: ratio
HLA-A*0201 (human) [7] = assay: competition with 125I standard peptide for purified HLA; gel filtration
HLA-A*0202 (human) [8] = assay: as above
HLA-A*0203 (human) [9] = assay: as above
HLA-A*0206 (human) [10] = assay: as above
HLA-A*6802 (human) [11] = assay: as above
HLA-A*0201 (human) [12] = assay: inhibition of 125I-labelled probe peptide binding to purified HLA; gel filtration
HLA-A*0202 (human) [13] = assay: as above
HLA-A*0206 (human) [14] = assay: as above
HLA-A*0203 (human) [15] = assay: as above
HLA-A*0201 (human) [16] = assay: competitive inhibition of 125I-labelled standard peptide binding to purified HLA, gel filtration; ratio = IC50 standard / IC50 test peptide
HLA-A*0203 (human) [17] = assay: as above
HLA-A*0206 (human) [18] = assay: as above
[19] = molecular target: HLA-A*0301 (purified HLA class I molecule) (human); assay: competition binding assay with purified HLA-A*0301; inhibition of 125I-labelled standard peptide 941.12 ([..], 11 nM), gel filtration
HLA-A*0201 (human) [20] = assay: competitive inhibition of 125I-labelled standard peptide binding to purified HLA
HLA-A*0202 (human) [21] = assay: as above
HLA-A*0203 (human) [22] = assay: as above
HLA-A*0206 (human) [23] = assay: as above
HLA-A*6802 (human) [24] = assay: inhibition of 125I-labelled probe peptide binding to purified HLA; gel filtration
HLA-A*0201 (human) [25] = assay: inhibition of 125I probe peptide binding to purified HLA, gel filtration; ratio = IC50 standard/IC50 test; details: remark: other sources report otherwise
HLA-A*0202 (human) [26] = assay: as above; details: remark: other sources report otherwise
HLA-A*0301 (human) [27] = assay: competition with radiolabeled standard peptide on purified HLA-A*0301, gel filtration; details: scale: ratio
HLA-A*6802 (human) [28] = assay: inhibition of 125I probe peptide binding to purified HLA, gel filtration; ratio = IC50 standard/IC50 test; details: remark: other sources report otherwise
HLA-A*0201 (human) [29] = assay: competition with 125I-labelled standard peptide 941.01 for purified HLA-A*0201, gel filtration
HLA-A*0202 (human) [30] = assay: competition with 125I-labelled standard peptide 941.01 for purified HLA-A*0202, gel filtration
HLA-A*0206 (human) [31] = assay: competition with 125I-labelled standard peptide 941.01 for purified HLA-A*0206, gel filtration
HLA-A*6802 (human) [32] = assay: competition with 125I-labelled standard peptide 1072.34 for purified HLA-A*6802, gel filtration
HLA-A*0201 (human) [33] = assay: competition with 125I-labeled probe peptide for purified HLA, gel filtration
HLA-A*0202 (human) [34] = assay: as above
HLA-A*6802 (human) [35] = assay: as above
HLA-A*0206 (human) [36] = assay: as above; details: remark: other sources report otherwise
HLA-A*0203 (human) [37] = assay: competition with 125I-labelled standard peptide for purified HLA, gel filtration; ratio = IC50 standard / IC50 test peptide; details: remark: other sources report otherwise
HLA-A*0206 (human) [38] = assay: as above; details: remark: other sources report otherwise
[39] = remark: other sources report otherwise

B1: PSM 721 … (peptide)
peptide: PSKAWGEVKR
modifications: not checked
binding affinity ratio (IC50 of standard peptide / IC50 of test peptide) (HLA-A*1101 (human) [1]): 0.0002

B2: PAP 200 … (peptide)
peptide: QDLFGIWSK
modifications: not checked
binding affinity ratio (IC50 of standard peptide / IC50 of test peptide) (HLA-A*1101 (human) [1]): 0.0008

B3: … (PSM, position 492) (peptide)
peptide: SLYESWTKK
modifications: not checked
binding affinity ratio (HLA-A*0301 (human) [2]): 1
binding affinity ratio (HLA-A*1101 (human) [3]): 2
binding affinity ratio (IC50 of standard peptide / IC50 of test peptide) (HLA-A*0301 (human) [4]): 1
binding affinity ratio (IC50 of standard peptide / IC50 of test peptide) (HLA-A*1101 (human) [5]): 2

B4: … (Kallikrein position 8, 10-mer) (peptide)
peptide: IALSVGCTGA
modifications: not checked
binding affinity ratio (HLA-A*0202 (human) [6]): 0.05

B5: Peptide 1418.53 … (HuK2.178.V10) (peptide)
peptide: LLSNDMCARV
modifications: not checked
IC50 (HLA-A*0201 (human) [7]; [39]): 5.3 nM
IC50 (HLA-A*0202 (human) [8]; [39]): 0.7 nM
IC50 (HLA-A*0203 (human) [9]; [39]): 4.3 nM
IC50 (HLA-A*0206 (human) [10]; [39]): 10 nM
IC50 (HLA-A*6802 (human) [11]; [39]): 1700 nM

B6: peptide 63.0042 (PAP.134.L2) (peptide)
peptide: PLLLWQPIPV
modifications: not checked
IC50 (HLA-A*0201 (human) [12]; [39]): 238 nM
IC50 (HLA-A*0202 (human) [13]; [39]): 47 nM
IC50 (HLA-A*0206 (human) [14]; [39]): 336 nM

B7: peptide 1419.6 (PAP.122) (peptide)
peptide: ALFPPEGVSI
modifications: not checked
IC50 (HLA-A*0201 (human) [12]; [39]): 278 nM
IC50 (HLA-A*0203 (human) [15]; [39]): 133 nM
IC50 (HLA-A*0206 (human) [14]; [39]): 2640 nM

B8: … (PAP, position 242) (peptide)
peptide: SLLSLYGIH
modifications: not checked
binding affinity ratio (IC50 of standard peptide / IC50 of test peptide) (HLA-A*0301 (human) [4]): 0.0006
binding affinity ratio (IC50 of standard peptide / IC50 of test peptide) (HLA-A*1101 (human) [5]): 0.0002

B9: … (Kallikrein, position 138) (peptide)
peptide: VLGLPTQEPAL
modifications: not checked
binding affinity ratio (HLA-A*0201 (human) [16]): -0.0001
binding affinity ratio (HLA-A*0203 (human) [17]): 0.0003
binding affinity ratio (HLA-A*0206 (human) [18]): 0.0003

B10: PSM peptide … (position 114, 9 amino acids) (peptide)
peptide: DVLLSYPNK
modifications: not checked
binding affinity ratio (IC50 of standard peptide / IC50 of test peptide) (ratio to standard peptide) [19]: 0.0006

B11: Peptide 63.0186, … (PSA.3.V11) (peptide)
peptide: FLTLSVTWIGV
modifications: not checked
IC50 (HLA-A*0201 (human) [20]): 6.8 nM
IC50 (HLA-A*0202 (human) [21]): 3 nM
IC50 (HLA-A*0203 (human) [22]): 18 nM
IC50 (HLA-A*0206 (human) [23]): 65 nM

B12: peptide 60.0213 (PAP.292.V9) (peptide)
peptide: TVSGLQMAV
modifications: not checked
IC50 (HLA-A*0201 (human) [12]): 294 nM
IC50 (HLA-A*0202 (human) [13]): 12 nM
IC50 (HLA-A*0203 (human) [15]): 122 nM
IC50 (HLA-A*0206 (human) [14]): 195 nM
IC50 (HLA-A*6802 (human) [24]): 5.7 nM

B13: peptide 63.0041 (PAP.128.V10) (peptide)
peptide: GVSIWNPILV
modifications: not checked
IC50 (HLA-A*0201 (human) [12]; [39]): 250 nM
IC50 (HLA-A*0202 (human) [13]; [39]): 94 nM
IC50 (HLA-A*0206 (human) [14]; [39]): 451 nM
IC50 (HLA-A*6802 (human) [24]; [39]): 2290 nM

B14: … (PSA, position 59) (peptide)
peptide: AAHCIRNKSVI
modifications: not checked
binding affinity ratio (HLA-A*0201 (human) [25]): 0.001
binding affinity ratio (HLA-A*0202 (human) [26]): 0.01

B15: PAP peptide … (position 51, 9 amino acids) (peptide)
peptide: DTFPTDPIK
modifications: not checked
binding affinity ratio (IC50 of standard peptide / IC50 of test peptide) (ratio to standard peptide) [19]: 0.0001

B16: PAP 226 peptide … (peptide)
peptide: WATEDTMTK
modifications: not checked
binding affinity ratio (HLA-A*0301 (human) [27]): 0.0006

B17: PSA 56 peptide … (peptide)
peptide: VLTAAHCIR
modifications: not checked
binding affinity ratio (HLA-A*0301 (human) [27]): 0.0002

B18: … (Kallikrein, position 9) (peptide)
peptide: ALSVGCTGA
modifications: not checked
binding affinity ratio (HLA-A*6802 (human) [28]): -0.0001

B19: RLSEPAKI (Kallikrein, position 125) (peptide)
peptide: RLSEPAKI
modifications: not checked
binding affinity ratio (IC50 of standard peptide / IC50 of test peptide) (HLA-A*0201 (human) [29]): -0.0001
binding affinity ratio (IC50 of standard peptide / IC50 of test peptide) (HLA-A*0202 (human) [30]): 0.0005
binding affinity ratio (IC50 of standard peptide / IC50 of test peptide) (HLA-A*0206 (human) [31]): -0.0001
binding affinity ratio (IC50 of standard peptide / IC50 of test peptide) (HLA-A*6802 (human) [32]): -0.0001

B20: Peptide 1389.12, … (PSA.118.V11) (peptide)
peptide: MLLRLSEPAEV
modifications: not checked
IC50 (HLA-A*0203 (human) [22]; [39]): 115 nM

B21: Peptide 1126.14 … (PSM.469) (peptide)
peptide: LMYSLVHNL
modifications: not checked
IC50 (HLA-A*0201 (human) [33]): 64 nM
IC50 (HLA-A*0202 (human) [34]): 0.4 nM
IC50 (HLA-A*6802 (human) [35]): 320 nM

B22: Peptide 1418.21 … (HuK2.191.V9) (peptide)
peptide: KVTEFMLCV
modifications: not checked
IC50 (HLA-A*6802 (human) [11]; [39]): 6670 nM

B23: peptide 63.0048 (PAP.234.V10) (peptide)
peptide: KLRELSELSV
modifications: not checked
IC50 (HLA-A*0201 (human) [12]; [39]): 263 nM
IC50 (HLA-A*6802 (human) [24]; [39]): 1820 nM

B24: PSA 43 … (peptide)
peptide: RAVCGGVLVH
modifications: not checked
binding affinity ratio (IC50 of standard peptide / IC50 of test peptide) (HLA-A*1101 (human) [1]; [39]): 0.031

B25: peptide 1419.69 (PAP.136.V10) (peptide)
peptide: LLWQPIPVHV
modifications: not checked
IC50 (HLA-A*0201 (human) [12]): 25 nM
IC50 (HLA-A*0202 (human) [13]): 1.8 nM
IC50 (HLA-A*0203 (human) [15]): 17 nM
IC50 (HLA-A*6802 (human) [24]): 60 nM

B26: PSA 188 peptide … (peptide)
peptide: VTKFMLCAGR
modifications: not checked
binding affinity ratio (HLA-A*0301 (human) [27]; [39]): 0.0003

B27: Peptide 1418.29 … (PSM.168.T2) (peptide)
peptide: GTPEGDLVYV
modifications: not checked
IC50 (HLA-A*0201 (human) [33]; [39]): 313 nM
IC50 (HLA-A*0206 (human) [36]): 40 nM
IC50 (HLA-A*6802 (human) [35]; [39]): 571 nM

B28: Peptide 1419.69 … (PAP.136.V10) (peptide)
peptide: LLWQPIPVHV
modifications: not checked
IC50 (HLA-A*0201 (human) [7]): 25 nM
IC50 (HLA-A*0202 (human) [8]): 1.8 nM
IC50 (HLA-A*0203 (human) [9]): 17 nM
IC50 (HLA-A*6802 (human) [11]): 60 nM

B29: Peptide 1418.55 … (HuK2.217.V10) (peptide)
peptide: LVCNGVLQGV
modifications: not checked
IC50 (HLA-A*0201 (human) [7]): 10 nM
IC50 (HLA-A*0202 (human) [8]): 2.9 nM
IC50 (HLA-A*0203 (human) [9]): 12 nM
IC50 (HLA-A*0206 (human) [10]): 5.6 nM
IC50 (HLA-A*6802 (human) [11]): 3.5 nM

B30: VLTAAHCL (Kallikrein, position 60) (peptide)
peptide: VLTAAHCL
modifications: not checked
binding affinity ratio (HLA-A*0201 (human) [16]): 0.0002
binding affinity ratio (HLA-A*0203 (human) [17]): 0.0001
binding affinity ratio (HLA-A*0206 (human) [18]): 0.0001

B31: Kallikrein (hK2) peptide …, position 39, 10 amino acids (peptide)
peptide: QVAVYSHGWA
modifications: not checked
binding affinity ratio (ratio to standard peptide) (HLA-A*0203 (human) [37]): 0.02
binding affinity ratio (ratio to standard peptide) (HLA-A*0206 (human) [38]): 0.0005

B32: PSM peptide … (position 641, 9 amino acids) (peptide)
peptide: EIASKFSER
modifications: not checked
binding affinity ratio (IC50 of standard peptide / IC50 of test peptide) (ratio to standard peptide) [19]: 0.0006
